Literature values as cited in article PMC6165679.

How the values were obtained:
[1] = biological target: APJ receptor (Homo sapiens) (UniProt P35414); test: competition binding
[2] = biological target: APJ receptor (Homo sapiens) (UniProt P35414)

Sequence of UniProt P35414 (P35414 whole entry): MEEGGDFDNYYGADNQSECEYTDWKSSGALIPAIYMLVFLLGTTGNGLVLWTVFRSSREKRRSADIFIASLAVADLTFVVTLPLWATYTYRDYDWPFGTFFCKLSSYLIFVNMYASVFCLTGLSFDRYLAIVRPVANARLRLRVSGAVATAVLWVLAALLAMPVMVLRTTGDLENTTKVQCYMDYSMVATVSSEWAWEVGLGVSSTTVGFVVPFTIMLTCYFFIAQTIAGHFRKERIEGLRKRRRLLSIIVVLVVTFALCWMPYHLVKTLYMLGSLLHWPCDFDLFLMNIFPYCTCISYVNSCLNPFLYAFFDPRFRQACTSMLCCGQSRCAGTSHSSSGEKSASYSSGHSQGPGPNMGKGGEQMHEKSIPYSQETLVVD

cyclo(1–6)CRPRLC-KH-cyclo(9–14)CRPRLC
Kd [1]: 3200 nM | Ki [2]: 82 nM
